From the supplement of paper PMC9942255

tested on: Bacillus subtilis DB104 (SP-AmyQ fusion secretion); experiment: AmyQ secretion efficiency, weighted average sort bin (1 = best secretion, 10 = worst) (bin number (weighted average, 1-10)); higher = lower secretion efficiency
Summary of the method: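 The secretion score was taken as the read-frequency-weighted mean bin number, normalised to beads per bin, with low-abundance sequences excluded. Bins came from large-particle flow cytometry sorting of occupied alginate beads (~65 nL, about 0.3 cells each, with fluorescein-starch) into 10 equally populated groups by green/red fluorescence ratio after about 13 h at room temperature and nile red staining. The cells were a B. subtilis DB104 library with mature AmyQ fused to designed signal peptides, integrated at amyE, and each bin's amplicons were Illumina-sequenced.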

Sequence	AmyQ secretion efficiency
MKKSTRKYKILGALGTSYISADSS	7.69
MRRRTDYKKQVVGILLSLAFVLFVFSFSERHE	6.74
MKKLRKKKKKGLLTVSIASPSFAAEK	7.52
MKKSQYFKRRKCFFVLFSVHPIAAAAADS	9.07
MRKKLKWLSTGTGGTYTQFLFKYQFSNNDS	7.11
MKKAAAVLLSLGLVFGFSYGAGHVVEAKTK	2.99
MTTKFTALAVFLLCFMPAAKIKRKHTQASLL	7.32
MRKKRVITCVMAASLTLGSLLPAGYSSAKED	3.75
MKKVMLATALFLGLTFTTFAPAGANAADL	2.89
MKTKTLFIFSAILTLSIFASTITLSAFAPNETFAQTA	3.01
MRNLTKTSLLLAGLCTAAKKKFVTHASAEES	8.31
MLTKRLLTIYIMLLGLILAWFPGAAQAEEK	2.09
MKKWMAGLFLAAAVLLCLMVPQQIQPASS	7.7
MKKLVLCVSILAVILSGVALTDED	6.4
MKRSIRTGTYCLLITLLTMGGMIASPASAAGT	3.22
MGSLTKTSLLLAGLCTAAQMVFVTHASAEES	4.02
MKNMSCKLVVSVTLFFSFLTIGPLAHAQKR	1.94
MRSYIKVLTMCFLGLILFVPTALAEEE	2.15
MKRSISIFITCLLITLLKRKGMIASPASAAGT	5.06
MGLGKKLSVAVAASFMSLSISLPGVQSAEG	3.87
MPIKKKCLAVTLVFGSMSFPTLTNSGGFKE	5.38

Sequence	AmyQ secretion efficiency
MKKRLIAPMLLSAASLAFFAMVAVIAQAAAY	5.95
MFLFQVSHAIIISVMLSFVIAVFHTIHASELTP	6.77
MKLSVKIAGVLTVAAAAMSTAKMYATAKGN	7.14
MGCTMMLLFSAIASFPVSAQAKDQ	6.4
MRKNRILALFVLSLGLLSFMVTPISAASK	2.15
MNLRKIRKKRALSLGMLVSAAPVLATSS	7.46
MKKRLIGFLVLVPALIMSGITLIEARKK	7.62
MLCVMMLLFSAIASFPVSAQTKDQ	6.25
MTKKAWFLPLVCVLLIDEDLAPAASASAQTT	2.58
MKKTIMSFVAVAALSTTAFGAHASTKEI	5.13
MKLKSKLLLSCLALSTVFVRKRIANAPTH	6.91
MAIIIAIIAAVIVIAALITFAVRNASPG	6.55
MKRFLIGAGVAAVILRKKKKAKHQTHSQEM	6.98
MKKRLIAPMLLSAASLAFFAMSGSGAQAAAY	3.78
MSFFTKNRLISSVLSTVVISSLLFPGAAGASSK	1.61
MLKKVILAAFILVGSTLGEDSFSSDASAKHV	4.32
MRKYTVIASILLSFLSVLESKAFPV	4.71
MKKLLAAGIIGLLTVSIASPLFAAEK	3.02
MNKFLKSNFRFLLAAALGISLLASSNFAKASND	1.03
MKNMSCKLRRRRKRFFSFLTIGPLAHAQNS	7.37
MTGYYKVLTMCFLGLILFVPTALADNS	1.69

Sequence	AmyQ secretion efficiency
MTKKARKLPLVCVLLISGWLAPAASASAQTT	1.96
MLMLCLWFTVFSLFLVLLPGKALGAVD	5.08
MLYLKRVLLLLVTGLFMSLFAVTATASAQTG	1.49
MKKAAAVLLSLGLVFGFSYGAEAKTK	2.21
MMIKQNMSSCVICLSLLVFGTTAAHAEET	2.9
MKKRLIAPMLLSAASLAFFAMSGSLQAAAY	5.33
MKRFSTAYLKKRKLCSAAVFLIGAPSRALGAEV	6.51
MRSYIKVLTMCFLGLILFVPTVLADNS	2.19
MHLIRAAGAVCLAVVLIAGCRITSIFFNEDQHQAEGENT	6.96
MRPVFPLILSAVLFLSCFFGARQTEPSASKR	5.61
MKTLRTLCVLMILSGVIFFGLKCDAKDI	4.31
MKKWIYVVLVLSIAGIGGFSVHNASS	5.06
MKLWMRKTLVVLFTIVTFGLVVPPAALMADKP	2.83
MRKRQGSGYGGLMMFGTITAASASPD	7.27
MPYLKRVLLLLVTGLFMSLFEEEATASAQTG	1.12
MKKAFLVFLSVVLVTTVFLVKQQESVCQAKQL	4.58
MKKWMAGLFLAAAVLLCLMVPQQTTGTSGSVIQGASS	4.56
MRKKRVITCVMAASLTLGSLLPAGYLSAKED	4.34
MKRKLLSSLAISALSLGLLVKRRKKKSFAAES	7.18
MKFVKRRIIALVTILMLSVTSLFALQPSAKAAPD	2.11
MKKELLASLVLCLSLKRLVSTNKVFAATT	7.51
